# In US20090280138A1 (OXFORD BIOMEDICA UK, published 2009):
# Biological target: T1, MHC class I molecule A*0101 (biotin (bound to streptavidin-coated plate))
# T1 construct: also called A1; HLA-A1
# Experiment: iTopia iScore
# Protocol: (§1) The 9 mers were tested for Peptide Binding, Off Rate and Affinity using iTopia Epitope Discovery System in accordance with the manufacturer's instructions. Briefly, 96 well microtitre plates coated with MHC molecules representing different MHC alleles are used to identify candidate peptides. […] Determinations are performed in duplicate using an ELISA plate reader and included allele specific positive controls.
# (§2) Finally, multiparametric analysis is performed on the results from these assays and an iScore is generated. The iScore represents a measure of the overall quality of peptide-MHC binding, enabling candidate peptides to be ranked in order of binding quality and allowing rational prioritisation of peptides for functional cellular follow-up studies.
row,Binder,iScore
1,GAFARRPPL [5T4 9-mer peptide 55 GAFARRPPL],0
2,AFEHLPSLR [5T4 9-mer peptide 69 AFEHLPSLR],0
3,AFSGSNASV [5T4 9-mer peptide 81 AFSGSNASV],0
4,HNPLADLSP [5T4 9-mer peptide 76 HNPLADLSP],0
5,TGNQLAVLP [5T4 9-mer peptide 50 TGNQLAVLP],0
6,NQLAVLPAG [5T4 9-mer peptide 51 NQLAVLPAG],0
7,ILNHIVPPE [5T4 9-mer peptide 90 ILNHIVPPE],0
8,PAGAFARRP [5T4 9-mer peptide 54 PAGAFARRP],0
9,LSGSRLDEV [5T4 9-mer peptide 63 LSGSRLDEV],0
10,SNASVSAPS [5T4 9-mer peptide 83 SNASVSAPS],0
11,LVELILNHI [5T4 9-mer peptide 88 LVELILNHI],0
12,FARRPPLAE [5T4 9-mer peptide 56 FARRPPLAE],0
13,LDLSHNPLA [5T4 9-mer peptide 74 LDLSHNPLA],0
14,SGSNASVSA [5T4 9-mer peptide 82 SGSNASVSA],0
15,APSPLVELI [5T4 9-mer peptide 86 APSPLVELI],0
16,VSAPSPLVE [5T4 9-mer peptide 85 VSAPSPLVE],0
17,ASVSAPSPL [5T4 9-mer peptide 84 ASVSAPSPL],0
18,DEVRAGAFE [5T4 9-mer peptide 66 DEVRAGAFE],0
19,ELAALNLSG [5T4 9-mer peptide 60 ELAALNLSG],0
20,FLTGNQLAV [5T4 9-mer peptide 49 FLTGNQLAV],0
21,LNLSGSRLD [5T4 9-mer peptide 62 LNLSGSRLD],0
22,NHIVPPEDE [5T4 9-mer peptide 91 NHIVPPEDE],0
23,GSRLDEVRA [5T4 9-mer peptide 64 GSRLDEVRA],0

# Biological target: T2, MHC class I molecule A*0201 (biotin (bound to streptavidin-coated plate))
# T2 construct: also called A2; HLA-A2
# Experiment: iTopia iScore
# Protocol: as §1, §2
row,Binder,iScore
1,GAFARRPPL [5T4 9-mer peptide 55 GAFARRPPL],0.222
2,AFEHLPSLR [5T4 9-mer peptide 69 AFEHLPSLR],0
3,AFSGSNASV [5T4 9-mer peptide 81 AFSGSNASV],0.116
4,HNPLADLSP [5T4 9-mer peptide 76 HNPLADLSP],0
5,TGNQLAVLP [5T4 9-mer peptide 50 TGNQLAVLP],0.044
6,NQLAVLPAG [5T4 9-mer peptide 51 NQLAVLPAG],0.22
7,ILNHIVPPE [5T4 9-mer peptide 90 ILNHIVPPE],0.426
8,PAGAFARRP [5T4 9-mer peptide 54 PAGAFARRP],0
9,LSGSRLDEV [5T4 9-mer peptide 63 LSGSRLDEV],0.075
10,SNASVSAPS [5T4 9-mer peptide 83 SNASVSAPS],0.154
11,LVELILNHI [5T4 9-mer peptide 88 LVELILNHI],0.109
12,FARRPPLAE [5T4 9-mer peptide 56 FARRPPLAE],0.042
13,LDLSHNPLA [5T4 9-mer peptide 74 LDLSHNPLA],0.226
14,SGSNASVSA [5T4 9-mer peptide 82 SGSNASVSA],0
15,APSPLVELI [5T4 9-mer peptide 86 APSPLVELI],0
16,VSAPSPLVE [5T4 9-mer peptide 85 VSAPSPLVE],0
17,ASVSAPSPL [5T4 9-mer peptide 84 ASVSAPSPL],0.059
18,DEVRAGAFE [5T4 9-mer peptide 66 DEVRAGAFE],0
19,ELAALNLSG [5T4 9-mer peptide 60 ELAALNLSG],0.075
20,FLTGNQLAV [5T4 9-mer peptide 49 FLTGNQLAV],0.791
21,LNLSGSRLD [5T4 9-mer peptide 62 LNLSGSRLD],0
22,NHIVPPEDE [5T4 9-mer peptide 91 NHIVPPEDE],0
23,GSRLDEVRA [5T4 9-mer peptide 64 GSRLDEVRA],0.13

# Biological target: T3, MHC class I molecule A*0301 (biotin (bound to streptavidin-coated plate))
# T3 construct: also called A3; HLA-A3
# Experiment: iTopia iScore
# Protocol: as §1, §2
row,Binder,iScore
1,GAFARRPPL [5T4 9-mer peptide 55 GAFARRPPL],0
2,AFEHLPSLR [5T4 9-mer peptide 69 AFEHLPSLR],0
3,AFSGSNASV [5T4 9-mer peptide 81 AFSGSNASV],0
4,HNPLADLSP [5T4 9-mer peptide 76 HNPLADLSP],0
5,TGNQLAVLP [5T4 9-mer peptide 50 TGNQLAVLP],0
6,NQLAVLPAG [5T4 9-mer peptide 51 NQLAVLPAG],0
7,ILNHIVPPE [5T4 9-mer peptide 90 ILNHIVPPE],0
8,PAGAFARRP [5T4 9-mer peptide 54 PAGAFARRP],0
9,LSGSRLDEV [5T4 9-mer peptide 63 LSGSRLDEV],0
10,SNASVSAPS [5T4 9-mer peptide 83 SNASVSAPS],0
11,LVELILNHI [5T4 9-mer peptide 88 LVELILNHI],0
12,FARRPPLAE [5T4 9-mer peptide 56 FARRPPLAE],0
13,LDLSHNPLA [5T4 9-mer peptide 74 LDLSHNPLA],0
14,SGSNASVSA [5T4 9-mer peptide 82 SGSNASVSA],0
15,APSPLVELI [5T4 9-mer peptide 86 APSPLVELI],0
16,VSAPSPLVE [5T4 9-mer peptide 85 VSAPSPLVE],0
17,ASVSAPSPL [5T4 9-mer peptide 84 ASVSAPSPL],0
18,DEVRAGAFE [5T4 9-mer peptide 66 DEVRAGAFE],0
19,ELAALNLSG [5T4 9-mer peptide 60 ELAALNLSG],0
20,FLTGNQLAV [5T4 9-mer peptide 49 FLTGNQLAV],0
21,LNLSGSRLD [5T4 9-mer peptide 62 LNLSGSRLD],0
22,NHIVPPEDE [5T4 9-mer peptide 91 NHIVPPEDE],0
23,GSRLDEVRA [5T4 9-mer peptide 64 GSRLDEVRA],0

# Biological target: T4, MHC class I molecule B*0702 (biotin (bound to streptavidin-coated plate))
# T4 construct: also called B7; HLA-B7
# Experiment: iTopia iScore
# Protocol: as §1, §2
row,Binder,iScore
1,GAFARRPPL [5T4 9-mer peptide 55 GAFARRPPL],0.359
2,AFEHLPSLR [5T4 9-mer peptide 69 AFEHLPSLR],0
3,AFSGSNASV [5T4 9-mer peptide 81 AFSGSNASV],0
4,HNPLADLSP [5T4 9-mer peptide 76 HNPLADLSP],0
5,TGNQLAVLP [5T4 9-mer peptide 50 TGNQLAVLP],0
6,NQLAVLPAG [5T4 9-mer peptide 51 NQLAVLPAG],0
7,ILNHIVPPE [5T4 9-mer peptide 90 ILNHIVPPE],0
8,PAGAFARRP [5T4 9-mer peptide 54 PAGAFARRP],0
9,LSGSRLDEV [5T4 9-mer peptide 63 LSGSRLDEV],0.107
10,SNASVSAPS [5T4 9-mer peptide 83 SNASVSAPS],0
11,LVELILNHI [5T4 9-mer peptide 88 LVELILNHI],0
12,FARRPPLAE [5T4 9-mer peptide 56 FARRPPLAE],0
13,LDLSHNPLA [5T4 9-mer peptide 74 LDLSHNPLA],0
14,SGSNASVSA [5T4 9-mer peptide 82 SGSNASVSA],0
15,APSPLVELI [5T4 9-mer peptide 86 APSPLVELI],0.101
16,VSAPSPLVE [5T4 9-mer peptide 85 VSAPSPLVE],0
17,ASVSAPSPL [5T4 9-mer peptide 84 ASVSAPSPL],0.017
18,DEVRAGAFE [5T4 9-mer peptide 66 DEVRAGAFE],0
19,ELAALNLSG [5T4 9-mer peptide 60 ELAALNLSG],0
20,FLTGNQLAV [5T4 9-mer peptide 49 FLTGNQLAV],0
21,LNLSGSRLD [5T4 9-mer peptide 62 LNLSGSRLD],0
22,NHIVPPEDE [5T4 9-mer peptide 91 NHIVPPEDE],0
23,GSRLDEVRA [5T4 9-mer peptide 64 GSRLDEVRA],0
